Experimental data published in US8551717B2, “Method for determining sumoylation” (Medizinische Hochschule Hannover, priority 2008, dated 2013).
Blank lines part the entries; values can stand above or below the substance they belong to.

How the values were obtained:
Type in all cases: cell-based
CDK4-U = target: T1, CDK4-U (Homo sapiens, UniProt P11802+P63279); test: Trans-SUMOylation by CDK4-U; set-up: key: (++), strong TransSUMOylation; (+), TransSUMOylation; (+/−) weak TransSUMOylation; (−) no detectable TransSUMOylation; details: protein 2 construct coexpressed with CDK4-U and EGFP-SUMO1 in HEK293; western blot; Table 1
T1 construct: expressed in transfected cells; host or cells: HEK293
Description: (§1) To identify new SUMOylation substrates and to study the function of SUMOylation the Ubc9/substrate dimerisation-dependent SUMOylation system (USDDS) was developed which consists of fusions of the SUMOylation substrate and of the SUMO-conjugating enzyme Ubc9 to the chemically activatable heterodimerisation domains FKBP and FRB, respectively, as shown in FIG. 2. When the substrate protein fused to FKBP is coexpressed with Ubc9-FRB, treatment of HEK293 cells with the rapamycin-related dimerizer AP21967 induces SUMOylation of the substrate protein fused to FKBP at its specific SUMOylation site. […] Dependent on an EcoRl site in the coding sequence, seven C-terminal amino acids of the human STAT1a in the STAT1-FKBP/FRB fusion proteins are missing. For the SUMOylation analysis HEK293 (human embryonic kidney cells) cells have been used. HEK293 cells were cultured in Dulbecco's modified Eagle's medium with high glucose, complemented with 10% fetal calf serum, 2 mM L-glutamine, 100 U/ml penicillin and […] streptomycin. […]
(§2) As shown above, the SUMOylation of a protein of interest can be induced by the heterodimerisation with a binding protein fused to Ubc9. […] Therefore the protein pairs were coexpressed with EGFP-SUMO1 in HEK293 cells and after 24h the transfectants were lysed and the protein extracts were analyzed in western blots. […]

U-CDC37 = target: T2, U-CDC37 (Homo sapiens, UniProt P63279+Q16543); test: Trans-SUMOylation by U-CDC37; set-up: key: (++), strong TransSUMOylation; (+), TransSUMOylation; (+/−) weak TransSUMOylation; (−) no detectable TransSUMOylation; details: protein 2 construct coexpressed with U-CDC37 and EGFP-SUMO1 in HEK293; western blot; Table 2
T2 construct: expressed in transfected cells; host or cells: HEK293
Description: as §1, §2

CRSP9-U = target: T3, CRSP9-U (Homo sapiens, UniProt O43513+P63279); test: Trans-SUMOylation by CRSP9-U; set-up: key: (++), strong TransSUMOylation; (+), TransSUMOylation; (+/−) weak TransSUMOylation; (−) no detectable TransSUMOylation; details: protein 2 construct coexpressed with CRSP9-U and EGFP-SUMO1 in HEK293; western blot; Table 2
T3 construct: Ubc9 (fusion partner); expressed in transfected cells; host or cells: HEK293
Description: as §1, §2

U-p38α = target: T4, U-p38α (Homo sapiens, UniProt P63279+Q16539); test: Trans-SUMOylation by U-p38α; details: protein 2 construct coexpressed with U-p38α and EGFP-SUMO1 in HEK293; western blot; Table 1
T4 construct: expressed in transfected cells; host or cells: HEK293

MEK2-U = target: T5, MEK2-U (Homo sapiens, UniProt P36507+P63279); test: Trans-SUMOylation by MEK2-U; set-up: key: (++), strong TransSUMOylation; (+), TransSUMOylation; (+/−) weak TransSUMOylation; (−) no detectable TransSUMOylation; details: protein 2 construct coexpressed with MEK2-U and EGFP-SUMO1 in HEK293; western blot; Table 1
T5 construct: expressed in transfected cells; host or cells: HEK293
Description: as §1, §2

U-MEK2 = target: T6, U-MEK2 (Homo sapiens, UniProt P36507+P63279); test: Trans-SUMOylation by U-MEK2; set-up: key: (++), strong TransSUMOylation; (+), TransSUMOylation; (+/−) weak TransSUMOylation; (−) no detectable TransSUMOylation; details: protein 2 construct coexpressed with U-MEK2 and EGFP-SUMO1 in HEK293; western blot; Table 1
T6 construct: expressed in transfected cells; host or cells: HEK293
Description: as §1, §2

ERK2-U = target: T7, ERK2-U (Homo sapiens, UniProt P28482+P63279); test: Trans-SUMOylation by ERK2-U; details: protein 2 construct coexpressed with ERK2-U and EGFP-SUMO1 in HEK293; western blot; Table 2
T7 construct: expressed in transfected cells; host or cells: HEK293

U-MK5 = target: T8, U-MK5 (Homo sapiens, UniProt P63279+Q8IW41); test: Trans-SUMOylation by U-MK5; set-up: key: (++), strong TransSUMOylation; (+), TransSUMOylation; (+/−) weak TransSUMOylation; (−) no detectable TransSUMOylation; details: protein 2 construct coexpressed with U-MK5 and EGFP-SUMO1 in HEK293; western blot; Table 2
T8 construct: expressed in transfected cells; host or cells: HEK293
Description: To identify new SUMOylation substrates and to study the function of SUMOylation the Ubc9/substrate dimerisation-dependent SUMOylation system (USDDS) was developed which consists of fusions of the SUMOylation substrate and of the SUMO-conjugating enzyme Ubc9 to the chemically activatable heterodimerisation domains FKBP and FRB, respectively, as shown in FIG. 2. When the substrate protein fused to FKBP is coexpressed with Ubc9-FRB, treatment of HEK293 cells with the rapamycin-related dimerizer AP21967 induces SUMOylation of the substrate protein fused to FKBP at its specific SUMOylation site. […] Dependent on an EcoRl site in the coding sequence, seven C-terminal amino acids of the human STAT1a in the STAT1-FKBP/FRB fusion proteins are missing. For the SUMOylation analysis HEK293 (human embryonic kidney cells) cells have been used. HEK293 cells were cultured in Dulbecco's modified Eagle's medium with high glucose, complemented with 10% fetal calf serum, 2 mM L-glutamine, 100 U/ml penicillin and […] streptomycin. We performed transfection of HEK293 cells using the polyethylenimine transfection reagent. HEK293 cells of a fresh confluent 10 cm plate were transferred on a 12-well plate. After 12-24 h incubation about 70% cell confluence is reached. For each well 45 μl of serum/antibiotic free DMEM medium is mixed with 750 ng of the transfection-purity expression vector DNA (all together 47 μl) and vortexed. Then, 3 μl of vortexed polyethylenimin stock solution (1 mg/ml) is added and the mixture is vortexed. After incubation at room temperature for 10 min 450 μl fresh DMEM with antibiotics is added to the mixture and vortexed. The medium on the cells was then completely removed and immediately, the 500 μl transfection mix was added carefully to each well. The 12 well plate was rocked to ensure a proper distribution of the DNA/transfection reagent complex. After an incubation of the cells for 24 h at a 37° C. in a humidified CO2-incubator (5%) the cells were lysed in 150 μl Laemmli (2×) gel loading buffer (160 mM Tris-HCL, pH 6.8, 4% (w/v) sodium dodecyl sulphate (SDS), 20% (v/v) glycerol, 0.5% β-mercaptoethanol (v/v), 0.008% (w/v) bromophenol blue) and incubated for 10 min at 95° C. For western blot analysis the proteins were separated by SDS-PAGE, blotted on a PVDF membrane and developed with specific primary antibodies (α-Ubc9 (H81, Santa Cruz), α-pY701-STAT1 (Tyr701, Cell Signaling), α-STAT1 (Cell Signaling), α-p53 (1C12, Cell Signaling), α-SUMO1 (Cell Signaling), a horseradish peroxidase (HRP)-conjugated secondary antibody (different companies), the ECL+ (Amersham) or Immobilon™ Western (Millipore) and the LAS-3000 imaging system (Fuji).
As shown above, the SUMOylation of a protein of interest can be induced by the heterodimerisation with a binding protein fused to Ubc9. To find out if Trans-SUMOylation is useful for the characterisation of common protein interactions, protein binding pairs well known from the literature or found in two hybrid screens. […] Therefore the protein pairs were coexpressed with EGFP-SUMO1 in HEK293 cells and after 24h the transfectants were lysed and the protein extracts were analyzed in western blots.
Protein-protein interactions described in the cited references were tested for Trans-SUMOylation. Each specific protein-protein interaction was tested by coexpression of different combinations of protein 1 fused to Ubc9 (U) with protein 2 mostly fused two a tag (HA, FLAG, Myc, GST, ST). (++), strong TransSUMOylation; (+), TransSUMOylation; (+/−) weak TransSUMOylation; (−) no detectable TransSUMOylation; (MEKK1ca) the activated MAP3 kinase MEKK1, that can enhance protein SUMOylation, was coexpressed.
Protein-protein interaction of each pair of protein 1/protein 2 was tested by coexpression of different combinations of a protein 1 fused to Ubc9 (U) with protein 2 mostly fused two a Tag (HA, FLAG, GST, ST). […]

U-ERK2 = target: T9, U-ERK2 (Homo sapiens, UniProt P28482+P63279); test: Trans-SUMOylation by U-ERK2; details: protein 2 construct coexpressed with U-ERK2 and EGFP-SUMO1 in HEK293; western blot; Table 2
T9 construct: expressed in transfected cells; host or cells: HEK293

MK2-U = target: T10, MK2-U (Homo sapiens, UniProt P49137+P63279); test: Trans-SUMOylation by MK2-U; details: protein 2 construct coexpressed with MK2-U and EGFP-SUMO1 in HEK293; western blot; Table 2
T10 construct: expressed in transfected cells; host or cells: HEK293

U-TAF10 = target: T11, U-TAF10 (Homo sapiens, UniProt P63279+Q12962); test: Trans-SUMOylation by U-TAF10; set-up: key: (++), strong TransSUMOylation; (+), TransSUMOylation; (+/−) weak TransSUMOylation; (−) no detectable TransSUMOylation; details: protein 2 construct coexpressed with U-TAF10 and EGFP-SUMO1 in HEK293; western blot; Table 2
T11 construct: Ubc9 (fusion partner); expressed in transfected cells; host or cells: HEK293
Description: as §1, §2

T2 sequence (P63279+Q16543 fused): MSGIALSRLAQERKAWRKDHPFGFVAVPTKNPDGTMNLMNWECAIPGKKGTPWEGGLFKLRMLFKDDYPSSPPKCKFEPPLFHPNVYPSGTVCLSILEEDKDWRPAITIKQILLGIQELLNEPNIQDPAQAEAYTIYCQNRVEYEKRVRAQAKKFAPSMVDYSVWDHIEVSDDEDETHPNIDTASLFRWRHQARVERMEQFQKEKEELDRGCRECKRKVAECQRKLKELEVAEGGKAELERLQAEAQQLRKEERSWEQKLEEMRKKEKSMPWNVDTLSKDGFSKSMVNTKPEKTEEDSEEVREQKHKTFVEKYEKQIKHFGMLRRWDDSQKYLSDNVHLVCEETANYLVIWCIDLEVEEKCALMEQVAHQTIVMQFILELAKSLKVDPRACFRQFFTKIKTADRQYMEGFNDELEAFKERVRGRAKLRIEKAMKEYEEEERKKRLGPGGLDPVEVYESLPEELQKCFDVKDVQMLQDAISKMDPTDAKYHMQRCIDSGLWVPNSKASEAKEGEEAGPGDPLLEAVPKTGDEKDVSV
T9 sequence (P63279+P28482 fused): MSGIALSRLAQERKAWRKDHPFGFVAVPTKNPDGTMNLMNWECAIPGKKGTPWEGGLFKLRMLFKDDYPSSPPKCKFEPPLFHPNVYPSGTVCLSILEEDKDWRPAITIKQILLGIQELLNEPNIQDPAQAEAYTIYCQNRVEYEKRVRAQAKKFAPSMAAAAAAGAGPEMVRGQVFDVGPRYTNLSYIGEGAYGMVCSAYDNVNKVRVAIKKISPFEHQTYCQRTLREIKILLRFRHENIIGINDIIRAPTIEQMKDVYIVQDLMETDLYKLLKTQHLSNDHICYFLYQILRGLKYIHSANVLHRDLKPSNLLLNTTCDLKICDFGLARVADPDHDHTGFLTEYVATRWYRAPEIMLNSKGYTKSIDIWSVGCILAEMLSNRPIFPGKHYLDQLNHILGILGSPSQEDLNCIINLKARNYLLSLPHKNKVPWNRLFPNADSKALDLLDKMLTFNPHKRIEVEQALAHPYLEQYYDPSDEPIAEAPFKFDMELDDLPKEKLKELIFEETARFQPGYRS
T11 sequence (P63279+Q12962 fused): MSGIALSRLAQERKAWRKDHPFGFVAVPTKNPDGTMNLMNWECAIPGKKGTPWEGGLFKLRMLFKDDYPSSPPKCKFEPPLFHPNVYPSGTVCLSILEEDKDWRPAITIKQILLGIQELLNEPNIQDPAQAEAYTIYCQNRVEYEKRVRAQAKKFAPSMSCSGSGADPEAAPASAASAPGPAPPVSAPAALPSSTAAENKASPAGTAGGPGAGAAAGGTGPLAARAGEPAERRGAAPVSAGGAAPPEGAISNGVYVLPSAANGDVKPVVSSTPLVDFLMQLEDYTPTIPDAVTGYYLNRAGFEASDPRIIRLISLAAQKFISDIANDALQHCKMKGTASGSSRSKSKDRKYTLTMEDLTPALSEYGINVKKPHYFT
T4 sequence (P63279+Q16539 fused): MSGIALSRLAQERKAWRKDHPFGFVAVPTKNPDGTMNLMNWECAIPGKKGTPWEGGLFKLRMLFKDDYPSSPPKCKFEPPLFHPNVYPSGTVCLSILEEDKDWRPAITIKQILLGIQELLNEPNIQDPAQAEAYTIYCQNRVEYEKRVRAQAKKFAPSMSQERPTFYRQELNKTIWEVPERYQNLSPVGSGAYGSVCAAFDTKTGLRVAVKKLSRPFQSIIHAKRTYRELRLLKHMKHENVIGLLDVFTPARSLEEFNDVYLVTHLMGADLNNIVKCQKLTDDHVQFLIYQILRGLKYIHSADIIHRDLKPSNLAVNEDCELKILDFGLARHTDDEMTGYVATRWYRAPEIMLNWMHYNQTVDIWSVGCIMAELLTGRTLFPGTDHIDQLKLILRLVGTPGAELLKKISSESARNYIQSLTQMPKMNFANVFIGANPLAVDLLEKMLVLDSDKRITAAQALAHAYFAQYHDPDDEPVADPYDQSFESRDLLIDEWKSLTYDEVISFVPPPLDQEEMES
T7 sequence (P28482+P63279 fused): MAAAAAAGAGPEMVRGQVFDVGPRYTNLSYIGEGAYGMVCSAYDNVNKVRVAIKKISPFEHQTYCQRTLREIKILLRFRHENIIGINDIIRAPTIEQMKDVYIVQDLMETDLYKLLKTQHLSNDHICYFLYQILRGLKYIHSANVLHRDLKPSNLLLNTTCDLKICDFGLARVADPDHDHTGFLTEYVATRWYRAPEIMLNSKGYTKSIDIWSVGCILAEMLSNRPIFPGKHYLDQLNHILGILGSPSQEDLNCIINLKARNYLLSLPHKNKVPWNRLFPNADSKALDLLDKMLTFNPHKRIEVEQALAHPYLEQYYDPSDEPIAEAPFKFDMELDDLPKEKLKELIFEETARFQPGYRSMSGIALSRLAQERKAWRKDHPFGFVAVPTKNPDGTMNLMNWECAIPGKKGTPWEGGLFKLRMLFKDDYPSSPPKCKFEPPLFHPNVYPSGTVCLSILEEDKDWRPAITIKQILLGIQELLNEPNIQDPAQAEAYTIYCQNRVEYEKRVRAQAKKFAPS
T8 sequence (P63279+Q8IW41 fused): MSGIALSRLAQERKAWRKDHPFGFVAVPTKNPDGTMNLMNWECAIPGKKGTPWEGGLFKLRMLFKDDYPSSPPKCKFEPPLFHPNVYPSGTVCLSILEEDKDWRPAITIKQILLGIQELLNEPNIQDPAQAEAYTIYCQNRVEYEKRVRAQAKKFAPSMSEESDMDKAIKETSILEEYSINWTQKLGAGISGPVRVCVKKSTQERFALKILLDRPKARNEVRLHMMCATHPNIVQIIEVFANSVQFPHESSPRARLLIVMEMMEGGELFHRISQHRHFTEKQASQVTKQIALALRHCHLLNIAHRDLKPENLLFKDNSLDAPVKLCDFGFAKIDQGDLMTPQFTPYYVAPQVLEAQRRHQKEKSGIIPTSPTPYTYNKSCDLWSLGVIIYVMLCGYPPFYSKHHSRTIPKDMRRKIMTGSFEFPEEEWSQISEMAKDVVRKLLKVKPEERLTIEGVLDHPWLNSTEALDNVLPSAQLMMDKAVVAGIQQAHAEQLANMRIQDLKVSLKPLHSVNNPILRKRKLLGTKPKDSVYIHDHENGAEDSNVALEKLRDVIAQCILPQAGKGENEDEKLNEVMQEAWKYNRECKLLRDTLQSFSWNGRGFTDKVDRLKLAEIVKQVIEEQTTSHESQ
T10 sequence (P49137+P63279 fused): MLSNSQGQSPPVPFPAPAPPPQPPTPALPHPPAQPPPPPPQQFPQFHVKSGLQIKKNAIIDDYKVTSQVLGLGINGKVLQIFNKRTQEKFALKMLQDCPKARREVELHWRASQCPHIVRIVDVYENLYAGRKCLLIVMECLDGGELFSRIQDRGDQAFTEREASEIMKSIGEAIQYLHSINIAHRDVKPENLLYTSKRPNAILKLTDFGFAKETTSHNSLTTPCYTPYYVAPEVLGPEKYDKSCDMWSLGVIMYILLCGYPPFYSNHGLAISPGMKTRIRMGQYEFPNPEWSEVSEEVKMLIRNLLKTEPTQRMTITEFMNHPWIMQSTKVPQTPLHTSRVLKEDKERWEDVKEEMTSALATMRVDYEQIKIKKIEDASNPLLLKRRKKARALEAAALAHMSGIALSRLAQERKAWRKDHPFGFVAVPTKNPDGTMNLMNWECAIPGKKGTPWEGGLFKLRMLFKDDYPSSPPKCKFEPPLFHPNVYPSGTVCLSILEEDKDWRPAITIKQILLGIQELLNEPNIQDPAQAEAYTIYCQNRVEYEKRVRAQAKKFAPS
T1 sequence (P11802+P63279 fused): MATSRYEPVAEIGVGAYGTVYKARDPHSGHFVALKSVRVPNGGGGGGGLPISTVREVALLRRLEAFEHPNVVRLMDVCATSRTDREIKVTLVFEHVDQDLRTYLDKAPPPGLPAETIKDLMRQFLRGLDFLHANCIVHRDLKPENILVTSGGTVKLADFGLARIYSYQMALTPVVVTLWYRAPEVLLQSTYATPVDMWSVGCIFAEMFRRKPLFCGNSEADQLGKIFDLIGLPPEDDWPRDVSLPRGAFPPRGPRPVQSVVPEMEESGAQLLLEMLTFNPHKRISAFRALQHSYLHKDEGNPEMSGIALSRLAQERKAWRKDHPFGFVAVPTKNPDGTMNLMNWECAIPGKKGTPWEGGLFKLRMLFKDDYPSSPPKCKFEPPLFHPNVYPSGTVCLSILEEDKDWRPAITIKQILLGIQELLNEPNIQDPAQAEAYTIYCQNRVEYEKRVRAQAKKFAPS
T3 sequence (O43513+P63279 fused): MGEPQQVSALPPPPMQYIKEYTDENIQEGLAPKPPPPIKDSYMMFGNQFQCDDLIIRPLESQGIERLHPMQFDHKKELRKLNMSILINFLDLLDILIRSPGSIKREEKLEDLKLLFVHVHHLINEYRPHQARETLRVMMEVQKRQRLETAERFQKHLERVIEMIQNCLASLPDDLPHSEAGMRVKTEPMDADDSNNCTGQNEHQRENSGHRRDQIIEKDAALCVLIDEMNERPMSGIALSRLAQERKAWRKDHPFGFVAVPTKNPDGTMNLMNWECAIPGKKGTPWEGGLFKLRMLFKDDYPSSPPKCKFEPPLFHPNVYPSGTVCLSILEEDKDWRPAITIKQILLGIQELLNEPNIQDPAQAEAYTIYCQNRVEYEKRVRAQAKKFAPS

Trans-SUMOylation (CDK4-U): +
Trans-SUMOylation (U-CDC37): +
Substance: GST-CDC37: CDC37 fused to GST tag

Trans-SUMOylation (CRSP9-U): −
Substance: GST-CRSP9: CRSP9 fused to GST tag

Trans-SUMOylation (U-p38α): −
Trans-SUMOylation (MEK2-U): +
Trans-SUMOylation (U-MEK2): +
Trans-SUMOylation (ERK2-U): −
Trans-SUMOylation (U-MK5): −
Trans-SUMOylation (U-ERK2): −
Substance: GST-ERK2: ERK2 fused to GST tag

Trans-SUMOylation (MK2-U): −
Trans-SUMOylation (U-TAF10): (+/−)
Substance: GST-TAF10: TAF10 fused to GST tag
